From article PMC5309722, “A substrate-bound structure of cyanobacterial biliverdin reductase identifies stacked substrates as critical for activity” (Nature Communications, 2017)

substrate: C=CC1=C(C)/C(=C/c2[nH]c(/C=C3N=C(/C=C4\NC(=O)C(C)=C4C=C)C(C)=C\3CCC(=O)O)c(CCC(=O)O)c2C)NC1=O; experiment: steady-state kinetics, A450 bilirubin formation; assay type: biochemical, Synechocystis sp. PCC 6803; conditions: 100 μM NADPH, 100 mM citrate pH 5.75
Description: steady-state kinetics, A450 bilirubin formation on Syn BVR

Row | Molecule | Km | kcat | kcat/Km
1 | Syn BVR (Synechocystis sp. PCC 6803 substr. Kazusa; R246A) (protein, full length, 328 residues; N-terminal His6 tag (pET15b), E. coli C41(DE3); tag cut with thrombin for crystals) MSENFAVATPVRVGIVGTGYAAQRRAEVFRGDRRSQLVSFWGNSEANTAKFADTFGVRPQQSWQALINDPEIDLVLIATINQLHGAIAEAALQAGKHVVLEYPLALTYAMGKKLQQLAREKGKLLHVEHIELLGGVHQAIRQNLGKIGEVFYARYSTIMGQNPAPQRWTYHHQQFGFPLVAALSRISRFTDLFGTVQQVDAQCRFWDQPNPEYFRACLATAYLQFNNGLKAEVIYGKGEVFHQNEAIFTLHGDRGTLIFVGETGRLIQGQTETEITVGSRRGLFRQDTEAVLDYLTTGKPLYVDLEASLYALEVADLCAQACGYKVEN | 5.1 ± 0.8 µM | 11 ± 0.6 s⁻¹ | 2.2e+06 M⁻¹ s⁻¹
2 | Syn BVR (Synechocystis sp. PCC 6803 substr. Kazusa; R185K) (protein, full length, 328 residues; N-terminal His6 tag (pET15b), E. coli C41(DE3); tag cut with thrombin for crystals) MSENFAVATPVRVGIVGTGYAAQRRAEVFRGDRRSQLVSFWGNSEANTAKFADTFGVRPQQSWQALINDPEIDLVLIATINQLHGAIAEAALQAGKHVVLEYPLALTYAMGKKLQQLAREKGKLLHVEHIELLGGVHQAIRQNLGKIGEVFYARYSTIMGQNPAPQRWTYHHQQFGFPLVAALSKISRFTDLFGTVQQVDAQCRFWDQPNPEYFRACLATAYLQFNNGLKAEVIYGKGEVFHQNERIFTLHGDRGTLIFVGETGRLIQGQTETEITVGSRRGLFRQDTEAVLDYLTTGKPLYVDLEASLYALEVADLCAQACGYKVEN | 12.6 ± 1.5 µM | 0.9 ± 0.05 s⁻¹ | 70000 M⁻¹ s⁻¹
3 | Syn BVR (Synechocystis sp. PCC 6803 substr. Kazusa; T169A) (protein, full length, 328 residues; N-terminal His6 tag (pET15b), E. coli C41(DE3); tag cut with thrombin for crystals) MSENFAVATPVRVGIVGTGYAAQRRAEVFRGDRRSQLVSFWGNSEANTAKFADTFGVRPQQSWQALINDPEIDLVLIATINQLHGAIAEAALQAGKHVVLEYPLALTYAMGKKLQQLAREKGKLLHVEHIELLGGVHQAIRQNLGKIGEVFYARYSTIMGQNPAPQRWAYHHQQFGFPLVAALSRISRFTDLFGTVQQVDAQCRFWDQPNPEYFRACLATAYLQFNNGLKAEVIYGKGEVFHQNERIFTLHGDRGTLIFVGETGRLIQGQTETEITVGSRRGLFRQDTEAVLDYLTTGKPLYVDLEASLYALEVADLCAQACGYKVEN | 3.4 ± 0.5 µM | 13.1 ± 0.5 s⁻¹ | 3.9e+06 M⁻¹ s⁻¹
4 | Syn BVR (Synechocystis sp. PCC 6803 substr. Kazusa; Y102F) (protein, full length, 328 residues; N-terminal His6 tag (pET15b), E. coli C41(DE3); tag cut with thrombin for crystals) MSENFAVATPVRVGIVGTGYAAQRRAEVFRGDRRSQLVSFWGNSEANTAKFADTFGVRPQQSWQALINDPEIDLVLIATINQLHGAIAEAALQAGKHVVLEFPLALTYAMGKKLQQLAREKGKLLHVEHIELLGGVHQAIRQNLGKIGEVFYARYSTIMGQNPAPQRWTYHHQQFGFPLVAALSRISRFTDLFGTVQQVDAQCRFWDQPNPEYFRACLATAYLQFNNGLKAEVIYGKGEVFHQNERIFTLHGDRGTLIFVGETGRLIQGQTETEITVGSRRGLFRQDTEAVLDYLTTGKPLYVDLEASLYALEVADLCAQACGYKVEN | 4.0 ± 0.3 µM | 2.7 ± 0.07 s⁻¹ | 700000 M⁻¹ s⁻¹
5 | Syn BVR (Synechocystis sp. PCC 6803 substr. Kazusa; R185A) (protein, full length, 328 residues; N-terminal His6 tag (pET15b), E. coli C41(DE3); tag cut with thrombin for crystals) MSENFAVATPVRVGIVGTGYAAQRRAEVFRGDRRSQLVSFWGNSEANTAKFADTFGVRPQQSWQALINDPEIDLVLIATINQLHGAIAEAALQAGKHVVLEYPLALTYAMGKKLQQLAREKGKLLHVEHIELLGGVHQAIRQNLGKIGEVFYARYSTIMGQNPAPQRWTYHHQQFGFPLVAALSAISRFTDLFGTVQQVDAQCRFWDQPNPEYFRACLATAYLQFNNGLKAEVIYGKGEVFHQNERIFTLHGDRGTLIFVGETGRLIQGQTETEITVGSRRGLFRQDTEAVLDYLTTGKPLYVDLEASLYALEVADLCAQACGYKVEN | 6.9 ± 0.6 µM | 0.7 ± 0.02 s⁻¹ | 100000 M⁻¹ s⁻¹
6 | Syn BVR (Synechocystis sp. PCC 6803 substr. Kazusa) (protein, full length, 328 residues; N-terminal His6 tag (pET15b), E. coli C41(DE3); tag cut with thrombin for crystals) MSENFAVATPVRVGIVGTGYAAQRRAEVFRGDRRSQLVSFWGNSEANTAKFADTFGVRPQQSWQALINDPEIDLVLIATINQLHGAIAEAALQAGKHVVLEYPLALTYAMGKKLQQLAREKGKLLHVEHIELLGGVHQAIRQNLGKIGEVFYARYSTIMGQNPAPQRWTYHHQQFGFPLVAALSRISRFTDLFGTVQQVDAQCRFWDQPNPEYFRACLATAYLQFNNGLKAEVIYGKGEVFHQNERIFTLHGDRGTLIFVGETGRLIQGQTETEITVGSRRGLFRQDTEAVLDYLTTGKPLYVDLEASLYALEVADLCAQACGYKVEN | 1.8 ± 0.3 µM | 7.1 ± 0.2 s⁻¹ | 3.9e+06 M⁻¹ s⁻¹

target: T1, Syn BVR (Synechocystis sp. PCC 6803, UniProt P72782); experiment: X-ray crystal structure, soaked crystal, […] Å; assay type: binding; conditions: 10 mM NADP+ soak; no biliverdin; cleft between the two domains
T1 construct: gene bvdR; full length, 328 residues; N-terminal His6 tag (pET15b), E. coli C41(DE3); tag cut with thrombin for crystals

Row | Molecule | X-ray crystal structure, soaked crystal, 2.7 Å
7 | NC(=O)c1ccc[n+]([C@@H]2O[C@H](COP(=O)(O)OP(=O)(O)OC[C@H]3O[C@@H](n4cnc5c(N)ncnc54)[C@H](OP(=O)(O)O)[C@@H]3O)[C@@H](O)[C@H]2O)c1 [NADP^+] | NADP^+ binds in the cleft between the two domains

substrate: C=CC1=C(C)/C(=C/c2[nH]c(/C=C3N=C(/C=C4\NC(=O)C(C)=C4C=C)C(C)=C\3CCC(=O)O)c(CCC(=O)O)c2C)NC1=O; experiment: steady-state kinetics, A450 bilirubin formation; assay type: biochemical, Homo sapiens; conditions: 100 μM NADPH, 100 mM Tris-HCl pH 8.75
Description: steady-state kinetics, A450 bilirubin formation on human BVR

Row | Molecule | Km | kcat | kcat/Km
8 | human BVR (Homo sapiens) (protein, C-terminal His tag (pET21a(+)), codon-optimized synthetic gene, E. coli BL21(DE3)) MNAEPERKFGVVVVGVGRAGSVRMRDLRNPHPSSAFLNLIGFVSRRELGSIDGVQQISLEDALSSQEVEVAYICSESSSHEDYIRQFLNAGKHVLVEYPMTLSLAAAQELWELAEQKGKVLHEEHVELLMEEFAFLKKEVVGKDLLKGSLLFTAGPLEEERFGFPAFSGISRLTWLVSLFGELSLVSATLEERKEDQYMKMTVCLETEKKSPLSWIEEKGPGLKRNRYLSFHFKSGSLENVPNVGVNKNIFLKDQNIFVQKLLGQFSEKELAAEKKRILHCLGLAEEIQKYCCSRK | 20.7 ± 10.1 µM | 94.8 ± 31.4 s⁻¹ | 4.6e+06 M⁻¹ s⁻¹
9 | human BVR (Homo sapiens; R172A) (protein, C-terminal His tag (pET21a(+)), codon-optimized synthetic gene, E. coli BL21(DE3)) MNAEPERKFGVVVVGVGRAGSVRMRDLRNPHPSSAFLNLIGFVSRRELGSIDGVQQISLEDALSSQEVEVAYICSESSSHEDYIRQFLNAGKHVLVEYPMTLSLAAAQELWELAEQKGKVLHEEHVELLMEEFAFLKKEVVGKDLLKGSLLFTAGPLEEERFGFPAFSGISALTWLVSLFGELSLVSATLEERKEDQYMKMTVCLETEKKSPLSWIEEKGPGLKRNRYLSFHFKSGSLENVPNVGVNKNIFLKDQNIFVQKLLGQFSEKELAAEKKRILHCLGLAEEIQKYCCSRK | 87.7 ± 35.7 µM | 17.9 ± 6.3 s⁻¹ | 200000 M⁻¹ s⁻¹
10 | human BVR (Homo sapiens; Y98F) (protein, C-terminal His tag (pET21a(+)), codon-optimized synthetic gene, E. coli BL21(DE3)) MNAEPERKFGVVVVGVGRAGSVRMRDLRNPHPSSAFLNLIGFVSRRELGSIDGVQQISLEDALSSQEVEVAYICSESSSHEDYIRQFLNAGKHVLVEFPMTLSLAAAQELWELAEQKGKVLHEEHVELLMEEFAFLKKEVVGKDLLKGSLLFTAGPLEEERFGFPAFSGISRLTWLVSLFGELSLVSATLEERKEDQYMKMTVCLETEKKSPLSWIEEKGPGLKRNRYLSFHFKSGSLENVPNVGVNKNIFLKDQNIFVQKLLGQFSEKELAAEKKRILHCLGLAEEIQKYCCSRK | 3.8 ± 0.3 µM | 16.8 ± 0.5 s⁻¹ | 4.4e+06 M⁻¹ s⁻¹

substrate: C=CC1=C(C)/C(=C/c2[nH]c(/C=C3N=C(/C=C4\NC(=O)C(C)=C4C=C)C(C)=C\3CCC(=O)O)c(CCC(=O)O)c2C)NC1=O; experiment: steady-state kinetics, A450 bilirubin formation; assay type: biochemical, Rattus norvegicus; conditions: 100 μM NADPH, 100 mM Tris-HCl pH 8.75; remark: another data set of the same source
Description: steady-state kinetics, A450 bilirubin formation on rat BVR

Row | Molecule | Km | kcat | kcat/Km
11 | rat BVR (Rattus norvegicus) (protein, C-terminal His tag (pET21a-rat bvr), E. coli BL21(DE3)) MDAEPKRKFGVVVVGVGRAGSVRLRDLKDPRSAAFLNLIGFVSRRELGSLDEVRQISLEDALRSQEIDVAYICSESSSHEDYIRQFLQAGKHVLVEYPMTLSFAAAQELWELAAQKGRVLHEEHVELLMEEFEFLRREVLGKELLKGSLRFTASPLEEERFGFPAFSGISRLTWLVSLFGELSLISATLEERKEDQYMKMTVQLETQNKGLLSWIEEKGPGLKRNRYVNFQFTSGSLEEVPSVGVNKNIFLKDQDIFVQKLLDQVSAEDLAAEKKRIMHCLGLASDIQKLCHQKK | 4.6 ± 1.1 µM | 69.3 ± 8.5 s⁻¹ | 1.51e+07 M⁻¹ s⁻¹
12 | rat BVR (Rattus norvegicus; Y97F) (protein, C-terminal His tag (pET21a-rat bvr), E. coli BL21(DE3)) MDAEPKRKFGVVVVGVGRAGSVRLRDLKDPRSAAFLNLIGFVSRRELGSLDEVRQISLEDALRSQEIDVAYICSESSSHEDYIRQFLQAGKHVLVEFPMTLSFAAAQELWELAAQKGRVLHEEHVELLMEEFEFLRREVLGKELLKGSLRFTASPLEEERFGFPAFSGISRLTWLVSLFGELSLISATLEERKEDQYMKMTVQLETQNKGLLSWIEEKGPGLKRNRYVNFQFTSGSLEEVPSVGVNKNIFLKDQDIFVQKLLDQVSAEDLAAEKKRIMHCLGLASDIQKLCHQKK | 11.7 ± 1.0 µM | 13.6 ± 0.6 s⁻¹ | 1.2e+06 M⁻¹ s⁻¹
13 | rat BVR (Rattus norvegicus; R171E) (protein, C-terminal His tag (pET21a-rat bvr), E. coli BL21(DE3)) MDAEPKRKFGVVVVGVGRAGSVRLRDLKDPRSAAFLNLIGFVSRRELGSLDEVRQISLEDALRSQEIDVAYICSESSSHEDYIRQFLQAGKHVLVEYPMTLSFAAAQELWELAAQKGRVLHEEHVELLMEEFEFLRREVLGKELLKGSLRFTASPLEEERFGFPAFSGISELTWLVSLFGELSLISATLEERKEDQYMKMTVQLETQNKGLLSWIEEKGPGLKRNRYVNFQFTSGSLEEVPSVGVNKNIFLKDQDIFVQKLLDQVSAEDLAAEKKRIMHCLGLASDIQKLCHQKK | 45.7 ± 15.4 µM | 0.7 ± 0.2 s⁻¹ | 20000 M⁻¹ s⁻¹
14 | rat BVR (Rattus norvegicus; R171A) (protein, C-terminal His tag (pET21a-rat bvr), E. coli BL21(DE3)) MDAEPKRKFGVVVVGVGRAGSVRLRDLKDPRSAAFLNLIGFVSRRELGSLDEVRQISLEDALRSQEIDVAYICSESSSHEDYIRQFLQAGKHVLVEYPMTLSFAAAQELWELAAQKGRVLHEEHVELLMEEFEFLRREVLGKELLKGSLRFTASPLEEERFGFPAFSGISALTWLVSLFGELSLISATLEERKEDQYMKMTVQLETQNKGLLSWIEEKGPGLKRNRYVNFQFTSGSLEEVPSVGVNKNIFLKDQDIFVQKLLDQVSAEDLAAEKKRIMHCLGLASDIQKLCHQKK | 24.4 ± 1.5 µM | 6 ± 0.2 s⁻¹ | 200000 M⁻¹ s⁻¹
